{"source": "paper PMC11594380", "biological_target": "SARS-CoV-2 Wuhan spike receptor-binding domain (RBD), His-tagged (SARS-CoV-2) (UniProt P0DTC2)", "assay": "ELISA"}
{"substance": "WTL_3H, wild-type-like tri-helical ACE2 fragment (from UniProt Q9BYF1 18-805) (domain or fragment)", "values": [{"measurement": "EC50", "value": 253, "unit": "nM"}, {"measurement": "Kd", "value": 192, "unit": "nM"}]}
